Key:
[1] = target: sEGFR domain III (residues 310-512) (human) (UniProt P00533); experiment: size exclusion chromatography (Superdex 200), 4 µM; the individual proteins elute at 15.6 mL
[2] = target: sEGFR domain III S460P/G461N (human) (UniProt P00533); experiment: as above
[3] = target: sEGFR domain III (residues 310-512) (human) (UniProt P00533); experiment: size exclusion chromatography (Superdex 200), 4 µM, domain III with Fab 425 and Fab C225 together

elution volume of the complex [1]: 13.9 mL
elution volume of the mixture [2]: 15.2 mL
elution volume of the tripartite complex [3]: 13.1 mL
Substance: Fab 425

— US20160152711A1
